Assay results as given in patent publication US20170240619A1 (GARVAN INSTITUTE OF MEDICAL RESEARCH, published 2017).
Values belong to the binder of their own block, whether it stands above or below them.

Biological target: T1, HER2 on SK-BR-3 human breast cancer cells (human, UniProt P04626 23-1255)
T1 construct: whole, on cells; also called SK-BR-3 cells; whole cell (SK-BR-3)
Assay: flow cytometry on SK-BR-3 cells, human IgG1, anti-human IgG-FITC detection
Method: Following washes in PBS containing 1% BSA, secondary antibody anti-human IgG-FITC (Sigma) was added for 30 min on ice. Fluorescence intensity of the live cell population was recorded using FACSCalibur (BD Biosciences) and analyzed using FlowJo 7.6.5 software (Tree Star).

EC50: 0.827 µg/mL
B1: 4D5 as human IgG1, VH 30D (30D/WT) (antibody, V domains shown)
VH: QVQLVESGGGLVQPGGSLRLSCAASGFNIDDTYIHWVRQAPGKGLEWVARIYPTNGYTRYADSVKGRFTISADTSKNTAYLQMNSLRAEDTAVYYCSRWGGDGFYAMDVWGQGTLVTVSS
VL: not shown

EC50: 0.978 µg/mL
B2: 4D5 as human IgG1, VH 30D and VL 52D (30D/52D) (antibody, V domains shown)
VH: B1 VH
VL: QIQMTQSPSSLSASVGDRVTITCRASQDVNTAVAWYQQKPGKAPKLLIYSADFLESGVPSRFSGSRSGTDFTLTISSLQPEDFATYYCQQHYTTPPTFGQGTKVEIK
